Measured values reported in US6617306B2, “Carrier for in vivo delivery of a therapeutic agent” (priority 1998, dated 2003).
Side chains are listed from the residue outwards. * marks the point of attachment. Biotin = O=C1N[C@H]2[C@H](CS[C@H]2CCCCC(=O)*)N1; cysteamine‑PEG/Lys copolymer = not defined here; PEG/Lys copolymer = not defined here

Assays:
[1] = Release of peptide from PEG/Lys carrier by reductive cleavage of the disulfide linkage with glutathione; assay type: physicochemical; conditions: for half-time of release of peptide from carrier: 3 mM glutathione in PBS (pH 7.4), room temperature, cysteamine thiol linker
Procedure: The disulfide linked conjugate, PEG-cysteamine-N-acetyl-Phe-Arg-Arg-Arg-Cys-NH2 (SEQ ID NO:9) was added to a solution of reduced glutathione (3 mM in PBS) to a final peptide concentration of 0.3 mM, and then incubated under N2 at room temperature. A sample was taken at each time point, acidified by adding an aliquot of 5% TFA and applied to a G-75 column in 0.1% TFA (7 ml bed volume) to separate PEG-conjugated peptide from free peptide. Appropriate fractions in the high-molecular-weight region were pooled, and the extent of peptide derivatization at each time point was determined by amino acid analysis. For measuring the release of radiolabeled peptide, each time point aliquot was acidified to pH 3.5 with sulfuric acid. The PEG-conjugated peptide and the free peptide were then separated using ultrafiltration on “CENTRICON-10”. To ensure complete separation, the retentate was diluted and ultrafiltered two more times. Radioactivity in the retentate and combined filtrate was quantitated by scintillation counting.
Release of the peptide, N-acetyl-Phe-Arg-Arg-Arg-Cys-NH2 (SEQ ID NO:9), by reductive cleavage of its disulfide linkage to a carrier of the present invention comprising a PEG/Lys copolymer was evaluated using 3 mM glutathione in PBS (pH 7.4) at room temperature. At each time point, an aliquot was withdrawn and acidified to halt the disulfide interchange reaction. Released peptide was removed from PEG/Lys-peptide conjugate by gel filtration chromatography, and the ratio of PEG (i.e. Lys residues) to peptide (i.e. Phe or Arg residues) was determined by amino acid analysis.
Release kinetics were also studied using the disulfide-linked radiolabeled peptides, N-acetyl-Arg-Lys-Lys-Arg-Arg-Gln-Arg-Arg-Arg-Cys-NH2 (SEQ ID NO:10) and N-acetyl-Arg-Lys-Lys-Arg-Arg-Gln-Arg-Arg-Arg-Lys-(biotin)-Cys-NH2 (SEQ ID NO:3). Released peptide was removed from PEG/Lys-peptide conjugate by ultrafiltration.
Analysis of the release rate of the radiolabeled peptide, N-acetyl-Arg-Lys-Lys-Arg-Arg-Gln-Arg-Arg-Arg-Lys-(biotin)-Cys-NH2 (SEQ ID NO:3) gave a half-time of about 40 min in the presence of 30 mM glutathione (FIG. 6). Since the disulfide cleavage rate is proportional to glutathione concentration^8, the sterically hindered linker has a release rate about 100 times slower than does a carrier of the present invention in which the thiol compound is cysteamine. Thus, the release rate can be readily controlled by selection of a thiol compound having functional groups, wherein the thiol compound is conjugated to the polymer, and conjugated via a disulfide bond to a therapeutic agent.

Tat binding to TAR RNA = assay: TAR-CAT / Tat plasmid transfected Jurkat cells, CAT protein by immunoassay; assay type: cell-based, HIV-1; conditions: inhibitor added at 18 h, CAT measured at 42 h
Procedure: FIG. 7 is a graph of the comparison of the inhibition of protein expression in a Jurkat cell line transfected with a TAR-CAT (TAR-Chloramphenicol Acetyl Transferase) plasmid and a Tat-protein plasmid. In this experiment, one group of cells was administered a Tat inhibitory biotinylated polypeptide derivative having a sequence of N-acetyl-Arg-Lys-Lys-Arg-Arg-Gln-Arg-Arg-Arg-Lys-(biotin)-Cys-NH2 (SEQ ID NO:3), and another group of cells was administered the same Tat inhibitory biotinylated peptide derivative conjugated to a carrier of the present invention via a disulfide bond between the sulfur atom of the thiol group of the thiol compound, and the thiol group of the Cys residue located between biotin and the amino group of the Tat inhibitory biotinylated polypeptide derivative of SEQ ID NO:3. […] Cysteamine was the thiol compound conjugated to the polymer. Conjugation of cysteamine to the polymer involved the carboxylic acid group of the lysine incorporated into the copolymer, which was available for reaction. If the polypeptide was successful in inhibiting Tat binding to TAR, CAT […]. […]
Initially, a Jurkat cell line was stably transfected with a TAR-CAT plasmid. […] At t=42 hours, the cells were harvested and CAT protein was measured by immunoassay. […]

Substance	half-time of release of peptide from carrier [1]	increase in potency relative to biotinylated Tat-peptide inhibitor administered alone (Tat binding to TAR RNA)	half-time of release of radiolabeled peptide from carrier ([1]; 30 mM glutathione in PBS, sterically hindered linker 1-amino-2-methyl-2-propanethiol)	release rate, times slower than carrier with cysteamine ([1]; cleavage rate taken as proportional to glutathione concentration)
PEG-cysteamine-N-acetyl-Phe-Arg-Arg-Arg-Cys-NH2 (Ac-FRRRC(cysteamine‑PEG/Lys copolymer)-NH2; reading uncertain; also: Cys disulfide-linked to PEG/Lys cysteamine carrier, printed as PEG-cysteamine-N-acetyl-Phe-Arg-Arg-Arg-Cys-NH2) [PEG-cysteamine-SEQ ID NO:9]	about 3 minutes	–	–	–
PEG-cysteamine-SEQ ID NO:3: SEQ ID NO:3 peptide disulfide-linked via its Cys to the cysteamine-PEG carrier (PEG/lysine copolymer, about 27,000 D) (Ac-RKKRRQRRRKC([cysteamine (disulfide)-PEG/Lys copolymer])-NH2; reading uncertain; also: Lys(biotin), position not given here)	about 3 minutes	about 5 fold	–	–
PEG-1-amino-2-methyl-2-propanethiol-SEQ ID NO:3: radiolabeled SEQ ID NO:3 peptide disulfide-linked to PEG/Lys derivative of sterically hindered 1-amino-2-methyl-2-propanethiol (Ac-RKKRRQRRRK(Biotin)C-NH2; not fully specified (residue 11); printed as N-acetyl-Arg-Lys-Lys-Arg-Arg-Gln-Arg-Arg-Arg-Lys-(biotin)-Cys-NH2; also: acetyl group tritium-labelled, Cys11 disulfide-linked to PEG/Lys carrier bearing 1-amino-2-methyl-2-propanethiol)	–	–	about 40 min	about 100 times
PEG-cysteamine-SEQ ID NO:10: radiolabeled SEQ ID NO:10 peptide disulfide-linked to PEG/Lys copolymer through cysteamine (Ac-RKKRRQRRRC-NH2; not fully specified (residue 10); printed as N-acetyl-Arg-Lys-Lys-Arg-Arg-Gln-Arg-Arg-Arg-Cys-NH2; also: radiolabel)	about 3 minutes	–	–	–
